Numbering of substitutions follows the chain as printed. One block for each binder: values may come before it.
Tests used:
[1] = biological target: T1, PTK7 on the SK-OV-3 cell line (human ovarian cancer cells) (human, UniProt Q13308 31-1070); experiment: flow cytometry on SK-OV-3 cells, FITC goat anti-human secondary antibody, MFI
T1 construct: whole, on cells
T1 sequence (looked up): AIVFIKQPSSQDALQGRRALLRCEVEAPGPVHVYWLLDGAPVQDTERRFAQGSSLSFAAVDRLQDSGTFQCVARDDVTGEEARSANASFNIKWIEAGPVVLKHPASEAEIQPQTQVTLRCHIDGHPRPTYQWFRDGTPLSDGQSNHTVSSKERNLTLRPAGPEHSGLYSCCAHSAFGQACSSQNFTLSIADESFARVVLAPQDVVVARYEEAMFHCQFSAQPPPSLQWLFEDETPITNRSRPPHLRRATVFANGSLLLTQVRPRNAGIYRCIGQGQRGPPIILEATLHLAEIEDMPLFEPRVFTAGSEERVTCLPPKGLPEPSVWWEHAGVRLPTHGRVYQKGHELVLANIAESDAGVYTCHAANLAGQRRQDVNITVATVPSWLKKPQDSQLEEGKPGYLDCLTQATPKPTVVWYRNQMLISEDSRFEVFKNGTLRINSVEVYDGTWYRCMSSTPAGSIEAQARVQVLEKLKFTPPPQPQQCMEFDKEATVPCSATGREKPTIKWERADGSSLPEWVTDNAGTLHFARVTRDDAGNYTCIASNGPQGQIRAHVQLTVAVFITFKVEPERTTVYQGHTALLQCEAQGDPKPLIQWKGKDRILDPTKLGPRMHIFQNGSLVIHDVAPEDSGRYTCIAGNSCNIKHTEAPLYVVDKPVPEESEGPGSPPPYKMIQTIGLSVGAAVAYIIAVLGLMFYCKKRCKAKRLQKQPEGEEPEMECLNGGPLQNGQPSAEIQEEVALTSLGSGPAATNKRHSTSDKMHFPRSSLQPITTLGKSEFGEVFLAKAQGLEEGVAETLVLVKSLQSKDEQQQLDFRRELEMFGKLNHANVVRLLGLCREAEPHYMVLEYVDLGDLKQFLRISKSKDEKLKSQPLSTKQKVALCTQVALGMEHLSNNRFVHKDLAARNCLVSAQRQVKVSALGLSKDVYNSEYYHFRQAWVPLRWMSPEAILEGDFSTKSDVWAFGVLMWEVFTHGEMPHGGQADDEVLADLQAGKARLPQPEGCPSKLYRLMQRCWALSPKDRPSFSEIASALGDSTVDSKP
Method: SK-OV-3 (human ovarian cancer cells, ATCC, Catalog No. HTB-77) was digested with trypsin in a culture dish, and the digested cells were centrifuged at 1000 rpm for 5 min and then blocked with 10% goat serum (purchased from Beijing Solarbio Science & Technology Co. Ltd., Item No. SL038) for 30 min. The anti-PTK7 antibodies as prepared in Example 2 of the present disclosure were diluted in a 3-fold gradient with a starting concentration of 500 nM. At the end of dilution, the gradient diluted anti-PTK7 antibodies were added to the cells, incubated for 1 h, and washed twice with PBS. Then, FITC-labeled goat anti-human secondary antibody (purchased from Jackson ImmunoResarch, Item No. 109-545-008) was added at 1:500, incubated for 1 h, and finally washed twice with PBS. The results were analyzed by flow cytometry.

[2] = biological target: T2, murine PTK7 protein (Catalog No. PT7-M52H3, Acrobiosystems) (murine, UniProt Q8BKG3 23-696); experiment: ELISA, PTK7 protein immobilized on the plate, peroxidase anti-human IgG, OD450
T2 construct: Bought protein; also called mouse PTK7
T2 sequence (looked up): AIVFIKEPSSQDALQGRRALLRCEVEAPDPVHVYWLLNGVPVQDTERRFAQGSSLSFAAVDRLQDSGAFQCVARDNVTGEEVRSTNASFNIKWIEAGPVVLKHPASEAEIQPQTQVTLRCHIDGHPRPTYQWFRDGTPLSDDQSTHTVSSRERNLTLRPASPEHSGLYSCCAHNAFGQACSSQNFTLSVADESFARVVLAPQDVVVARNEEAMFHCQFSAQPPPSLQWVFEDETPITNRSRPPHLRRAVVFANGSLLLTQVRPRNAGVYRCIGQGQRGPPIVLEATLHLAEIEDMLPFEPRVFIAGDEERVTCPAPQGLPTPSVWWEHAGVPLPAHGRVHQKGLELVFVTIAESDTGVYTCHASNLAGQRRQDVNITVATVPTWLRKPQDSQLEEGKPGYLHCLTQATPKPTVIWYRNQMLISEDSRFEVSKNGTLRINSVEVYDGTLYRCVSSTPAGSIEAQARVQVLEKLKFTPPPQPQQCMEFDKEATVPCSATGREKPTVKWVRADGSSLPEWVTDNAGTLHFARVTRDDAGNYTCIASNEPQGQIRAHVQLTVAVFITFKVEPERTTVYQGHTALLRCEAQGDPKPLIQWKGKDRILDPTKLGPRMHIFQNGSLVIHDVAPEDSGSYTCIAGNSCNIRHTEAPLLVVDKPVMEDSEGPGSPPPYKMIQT
Method: (§1) Human PTK7 protein (Catalog No. PT7-H52H3, Acrobiosystems), monkey PTK7 protein (Catalog No. PT7-C52H3, Acrobiosystems), and murine PTK7 protein (Catalog No. PT7-M52H3, Acrobiosystems) were incubated at 4° C. overnight and immobilized onto a 96-well plate. The plate was then blocked by incubating at 37° C. with 1% BSA in PBS for 1 h. After blocking, the plate was washed 3 times with PBST (PBS containing 0.05% Tween 20). Serial dilutions of anti-PTK7 antibody as prepared in Example 2 of the present disclosure was prepared in a binding buffer (PBS containing 0.05% Tween20 and 0.5% BSA) and incubated with the immobilized proteins at 37° C. for 1 h. After binding, the plate was washed 3 times with PBST, incubated with peroxidase-labeled donkey anti-human IgG (Jackson ImmunoResearch) diluted at 1/15,000 in the binding buffer at 37° C. for 1 h, washed again, developed with TMB and terminated with 1M H₂SO₄. The absorbance at 450 nm-620 nm was measured.

[3] = biological target: T3, Human PTK7 protein (Catalog No. PT7-H52H3, Acrobiosystems) (human, UniProt Q13308 31-704); experiment: as above
T3 construct: Bought protein
T3 sequence (looked up): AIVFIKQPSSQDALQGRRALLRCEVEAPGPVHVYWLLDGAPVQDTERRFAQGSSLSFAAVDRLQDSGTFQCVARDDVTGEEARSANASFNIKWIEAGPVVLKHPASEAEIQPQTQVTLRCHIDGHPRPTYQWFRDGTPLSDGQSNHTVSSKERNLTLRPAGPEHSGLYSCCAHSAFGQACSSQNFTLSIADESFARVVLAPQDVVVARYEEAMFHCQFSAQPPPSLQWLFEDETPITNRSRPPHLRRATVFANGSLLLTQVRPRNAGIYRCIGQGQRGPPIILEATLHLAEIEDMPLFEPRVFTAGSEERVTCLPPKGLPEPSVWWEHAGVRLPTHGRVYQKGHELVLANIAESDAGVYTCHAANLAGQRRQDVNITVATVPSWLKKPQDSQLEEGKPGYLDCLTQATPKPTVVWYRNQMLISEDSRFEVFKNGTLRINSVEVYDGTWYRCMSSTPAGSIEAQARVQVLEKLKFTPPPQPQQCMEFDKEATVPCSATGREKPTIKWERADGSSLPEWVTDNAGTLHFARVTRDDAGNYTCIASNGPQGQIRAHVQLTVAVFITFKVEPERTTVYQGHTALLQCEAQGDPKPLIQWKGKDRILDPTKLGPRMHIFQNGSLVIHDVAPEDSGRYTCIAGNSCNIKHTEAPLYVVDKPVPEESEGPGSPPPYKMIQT
Method: as §1

[4] = biological target: T4, monkey PTK7 protein (Catalog No. PT7-C52H3, Acrobiosystems) (monkey, UniProt A0A2K5VNQ6 31-704); experiment: as above
T4 construct: Bought protein; not shown: The vendor's purification tag, probably a C-terminal His tag
T4 sequence: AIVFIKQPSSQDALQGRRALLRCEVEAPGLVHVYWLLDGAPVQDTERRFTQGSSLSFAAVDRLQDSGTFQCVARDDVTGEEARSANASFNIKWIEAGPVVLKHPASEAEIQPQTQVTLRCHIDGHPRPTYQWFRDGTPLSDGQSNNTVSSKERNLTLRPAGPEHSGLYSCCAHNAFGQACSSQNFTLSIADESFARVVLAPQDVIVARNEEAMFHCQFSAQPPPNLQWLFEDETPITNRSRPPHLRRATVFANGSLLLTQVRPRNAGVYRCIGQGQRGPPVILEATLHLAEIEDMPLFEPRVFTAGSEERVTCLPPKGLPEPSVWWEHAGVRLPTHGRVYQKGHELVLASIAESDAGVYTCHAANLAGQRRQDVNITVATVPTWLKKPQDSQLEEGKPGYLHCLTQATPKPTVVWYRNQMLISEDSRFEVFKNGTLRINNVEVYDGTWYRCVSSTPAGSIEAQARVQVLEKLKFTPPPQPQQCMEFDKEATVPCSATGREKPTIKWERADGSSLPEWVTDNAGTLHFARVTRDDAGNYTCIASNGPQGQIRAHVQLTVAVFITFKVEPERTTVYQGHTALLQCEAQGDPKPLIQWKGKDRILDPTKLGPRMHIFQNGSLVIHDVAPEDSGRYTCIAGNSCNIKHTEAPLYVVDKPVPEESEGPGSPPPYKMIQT
Method: as §1

B1: human-murine chimeric PTK7 antibody ch13 (antibody, V domains shown)
VH: QVQLQQSGAELVRPGVSVKISCKGSGYTFTDYGMHWLKQSHAKSLEWIGVISPYYGDVTYNQKFKGKATMTVDKSSSTAYMELARLTSEDSAIYYCARGMGYWGQGTSVTVSS
VL: DVQITQSPSYLAASPGETITINCRASQSISKYLAWYQEKPGKTNKLLIYSGSTLQSGIPSRFSGSGSGTDFTLTISSLEPEDFAMYYCQQHNEYPWTFGGGTKLEIK
- EC50 [1]: 0.189 nM
- binding result [2]: no binding
- EC50 [3]: 0.0571 nM
- EC50 [4]: 0.0472 nM

B2: humanized PTK7 antibody Hu13H3L3 (antibody, V domains shown)
VH: QVQLVQSGAEVKKPGASVKISCKGSGYTFTDYGMHWLKQAPGQGLEWIGVISPYYGDVNYNQKFQGRATMTVDKSISTAYMELSRLRSDDTAVYYCARGMGYWGQGTLVTVSS
VL: DVQITQSPSFLSASVGDRVTITCRASQSISKYLAWYQQKPGKAPKLLIYSGSTLQSGVPSRFSGSGSGTEFTLTISSLQPEDFAMYYCQQHNEYPWTFGQGTKVEIK
- EC50 [1]: 0.156 nM

B4: humanized PTK7 antibody Hu13H3L0 (Ab13) (antibody, V domains shown)
VH: B2 VH
VL: B2 VL with V2I, I4L, M85T
- EC50 [1]: 0.19 nM

B5: humanized PTK7 antibody Hu13H2L3 (antibody, V domains shown)
VH: B2 VH with I20V, K38R, I48M, A68V, V72R, A92V
VL: B2 VL
- EC50 [1]: 0.213 nM

Results, then the binder that gave them:

- EC50 [1]: 0.161 nM
B3: humanized PTK7 antibody Hu13H3L5 (antibody, V domains shown)
VH: B2 VH
VL: B2 VL with F10Y, V15P, V19I, P44N

- EC50 [1]: 0.163 nM
B6: humanized PTK7 antibody Hu13H2L0 (antibody, V domains shown)
VH: B2 VH with I20V, K38R, I48M, A68V, V72R, A92V
VL: B2 VL with V2I, I4L, M85T

— patent US20250223378A1 (MABCARE THERAPEUTICS, published 2025)
